From patent US20060246077 (published 2006) come the findings set out here.

In the experiment the target is MUC18-V5-His (extracellular domain) (human, UniProt P43121). Put plainly: SPR, average.
Sequence of MUC18-V5-His (extracellular domain) (P43121 1-559): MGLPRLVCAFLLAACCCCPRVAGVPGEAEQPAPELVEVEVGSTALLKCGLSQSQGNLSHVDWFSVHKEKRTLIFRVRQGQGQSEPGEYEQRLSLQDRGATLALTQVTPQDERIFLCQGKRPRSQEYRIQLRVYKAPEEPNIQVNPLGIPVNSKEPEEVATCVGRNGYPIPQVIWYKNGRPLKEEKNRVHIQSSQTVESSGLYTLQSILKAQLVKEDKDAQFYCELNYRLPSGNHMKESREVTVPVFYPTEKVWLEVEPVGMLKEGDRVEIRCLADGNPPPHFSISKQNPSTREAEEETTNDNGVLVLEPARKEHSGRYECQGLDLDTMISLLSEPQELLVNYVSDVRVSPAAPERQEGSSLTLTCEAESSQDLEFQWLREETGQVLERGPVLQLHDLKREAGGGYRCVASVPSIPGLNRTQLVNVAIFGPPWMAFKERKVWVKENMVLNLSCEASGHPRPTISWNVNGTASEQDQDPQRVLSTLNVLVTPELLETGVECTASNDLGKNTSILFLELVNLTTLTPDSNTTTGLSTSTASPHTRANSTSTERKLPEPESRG

B1: c3.19.1 (antibody, V domains shown)
VH: QVQLQESGPGLVKPSETLSLTCTVSGGSISSYYWSWIRQPPGKGLEWIGYIYYTWTSNYNPSLKSRVTISVDTSKNQFSLRLSSVTAADTAVYYCARDQGQWLLPDAFDIWGQGTMVTVSS
VL: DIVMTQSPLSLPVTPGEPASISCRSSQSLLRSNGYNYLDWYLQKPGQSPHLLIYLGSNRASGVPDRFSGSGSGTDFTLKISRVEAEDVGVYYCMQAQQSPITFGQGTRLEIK
What is called Kd is the free concentration of one partner at which half of the binding sites on the other are occupied at equilibrium, for simple one-to-one binding. Read a high Kd as lower affinity. In turn, B1 yielded a Kd of 0.61 nM.
